Patent US20260193348A1 (ANTENGENE BIOLOGICS, published 2026)

What was measured:
[1] = target: T1, CD3 on T cells / Jurkat cells (human, UniProt P07766 23-207; P04234 22-171; P09693 23-182); assay: FACS on Jurkat cells
T1 construct: whole, on cells; Native CD3 complex on CD3+ T cells isolated from normal donors or on Jurkat cells; also called human CD3; CD3+ T cells

[2] = target: T2, GPRC5D on multiple myeloma cells (human, UniProt Q9NZD1 1-345); assay: FACS on MM.1S cells
T2 construct: whole, on cells; Endogenous GPRC5D on multiple myeloma cell lines; also called G-protein coupled receptor family C group 5 member D; MM.1S, MOLP-8, L363, RPMI8226 cells
T2 sequence (Q9NZD1 whole entry): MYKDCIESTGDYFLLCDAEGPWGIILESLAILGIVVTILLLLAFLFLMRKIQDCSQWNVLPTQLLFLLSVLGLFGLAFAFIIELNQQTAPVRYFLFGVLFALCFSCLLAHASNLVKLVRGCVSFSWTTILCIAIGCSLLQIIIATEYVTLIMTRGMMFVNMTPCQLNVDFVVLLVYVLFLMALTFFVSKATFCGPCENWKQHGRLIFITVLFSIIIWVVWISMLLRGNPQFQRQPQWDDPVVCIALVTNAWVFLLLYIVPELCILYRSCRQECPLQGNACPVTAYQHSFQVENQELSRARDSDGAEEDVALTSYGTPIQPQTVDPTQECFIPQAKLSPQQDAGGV

T1 sequence (P07766 23-207, chain 1 of 3): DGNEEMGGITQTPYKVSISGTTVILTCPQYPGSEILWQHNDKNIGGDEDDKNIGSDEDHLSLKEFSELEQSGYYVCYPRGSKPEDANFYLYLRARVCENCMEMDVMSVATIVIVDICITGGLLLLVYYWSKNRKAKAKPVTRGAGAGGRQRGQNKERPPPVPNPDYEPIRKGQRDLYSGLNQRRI
T1 sequence (P04234 22-171, chain 2 of 3): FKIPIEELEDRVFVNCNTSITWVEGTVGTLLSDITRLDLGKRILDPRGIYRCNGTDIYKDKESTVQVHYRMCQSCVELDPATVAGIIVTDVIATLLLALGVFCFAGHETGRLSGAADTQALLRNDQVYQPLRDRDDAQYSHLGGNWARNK
T1 sequence (P09693 23-182, chain 3 of 3): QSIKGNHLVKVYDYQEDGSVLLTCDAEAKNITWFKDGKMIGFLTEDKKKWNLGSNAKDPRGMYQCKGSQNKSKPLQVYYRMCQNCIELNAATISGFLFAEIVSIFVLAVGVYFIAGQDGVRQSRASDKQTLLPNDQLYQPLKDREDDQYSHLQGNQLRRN

B1: Bis-108+147-R35K.L (bispecific antibody, V domains shown)
VH 1: EVQLVQSGAEVKKPGASVKVSCKASGYTFTSYVIHWVRQAPGQGLEWMGYFNPYNDGTKYNEEFKGRVTLTSDKSTSTAYMELRSLRSDDTAVYYCARGGVRRYFDVWGQGTTVTVSS
VL 1: DIQMTQSPSSLSASVGDRVTITCRASQDIGSNLNWLQQKPGKAIKRLIYATFGLDSGVPSRFSGSRSGTDFTLTISSLQPEDFATYYCQQYASFPYTFGGGTKVEIK
VH 2: EVQLVQSGAEVKKPGSSVKVSCKASGYTFTSYWMHWVRQAPGQCLEWMGNINPSSGATNYNEKFKSRVTLTVDKSTSTAYMELSSLRSEDTAVYYCARDRSSQYYFDYWGQGTTVTVSS
VL 2: DIVMTQSPDSLAVSLGERATINCKSSQSLLNSRSKKNYLAWYQQKPGQPPKLLIYWASTRESGVPDRFSGSGSGTDFTLTISSLQAEDVAVYYCTQSYTLRTFGCGTKVEIK
notes: Fab-scFv-Fab (2+1): first VH/VL = anti-GPRC5D Fabs, second VH/VL = anti-CD3 scFv
binding result [1]: binds | binding result [2]: binds

B2: Bis-108+147-S54R.H (bispecific antibody, V domains shown)
VH 1: EVQLVQSGAEVKKPGASVKVSCKASGYTFTSYVIHWVRQAPGQGLEWMGYFNPYNDGTKYNEEFKGRVTLTSDKSTSTAYMELRSLRSDDTAVYYCARGGVRRYFDVWGQGTTVTVSS
VL 1: DIQMTQSPSSLSASVGDRVTITCRASQDIGSNLNWLQQKPGKAIKRLIYATFGLDSGVPSRFSGSRSGTDFTLTISSLQPEDFATYYCQQYASFPYTFGGGTKVEIK
VH 2: EVQLVQSGAEVKKPGSSVKVSCKASGYTFTSYWMHWVRQAPGQCLEWMGNINPRSGATNYNEKFKSRVTLTVDKSTSTAYMELSSLRSEDTAVYYCARDRSSQYYFDYWGQGTTVTVSS
VL 2: DIVMTQSPDSLAVSLGERATINCKSSQSLLNSRSRKNYLAWYQQKPGQPPKLLIYWASTRESGVPDRFSGSGSGTDFTLTISSLQAEDVAVYYCTQSYTLRTFGCGTKVEIK
notes: as for B1
binding result [1]: binds | binding result [2]: binds

B3: Bis-108+147-R35S.L (bispecific antibody, V domains shown)
VH 1: EVQLVQSGAEVKKPGASVKVSCKASGYTFTSYVIHWVRQAPGQGLEWMGYFNPYNDGTKYNEEFKGRVTLTSDKSTSTAYMELRSLRSDDTAVYYCARGGVRRYFDVWGQGTTVTVSS
VL 1: DIQMTQSPSSLSASVGDRVTITCRASQDIGSNLNWLQQKPGKAIKRLIYATFGLDSGVPSRFSGSRSGTDFTLTISSLQPEDFATYYCQQYASFPYTFGGGTKVEIK
VH 2: EVQLVQSGAEVKKPGSSVKVSCKASGYTFTSYWMHWVRQAPGQCLEWMGNINPSSGATNYNEKFKSRVTLTVDKSTSTAYMELSSLRSEDTAVYYCARDRSSQYYFDYWGQGTTVTVSS
VL 2: DIVMTQSPDSLAVSLGERATINCKSSQSLLNSRSSKNYLAWYQQKPGQPPKLLIYWASTRESGVPDRFSGSGSGTDFTLTISSLQAEDVAVYYCTQSYTLRTFGCGTKVEIK
notes: as for B1
binding result [1]: binds | binding result [2]: binds

B4: Bis-108+147-S31R.H (bispecific antibody, V domains shown)
VH 1: EVQLVQSGAEVKKPGASVKVSCKASGYTFTSYVIHWVRQAPGQGLEWMGYFNPYNDGTKYNEEFKGRVTLTSDKSTSTAYMELRSLRSDDTAVYYCARGGVRRYFDVWGQGTTVTVSS
VL 1: DIQMTQSPSSLSASVGDRVTITCRASQDIGSNLNWLQQKPGKAIKRLIYATFGLDSGVPSRFSGSRSGTDFTLTISSLQPEDFATYYCQQYASFPYTFGGGTKVEIK
VH 2: EVQLVQSGAEVKKPGSSVKVSCKASGYTFTRYWMHWVRQAPGQCLEWMGNINPSSGATNYNEKFKSRVTLTVDKSTSTAYMELSSLRSEDTAVYYCARDRSSQYYFDYWGQGTTVTVSS
VL 2: DIVMTQSPDSLAVSLGERATINCKSSQSLLNSRSRKNYLAWYQQKPGQPPKLLIYWASTRESGVPDRFSGSGSGTDFTLTISSLQAEDVAVYYCTQSYTLRTFGCGTKVEIK
notes: as for B1
binding result [1]: binds | binding result [2]: binds

B5: Bis-108+147-S102Q.H (bispecific antibody, V domains shown)
VH 1: EVQLVQSGAEVKKPGASVKVSCKASGYTFTSYVIHWVRQAPGQGLEWMGYFNPYNDGTKYNEEFKGRVTLTSDKSTSTAYMELRSLRSDDTAVYYCARGGVRRYFDVWGQGTTVTVSS
VL 1: DIQMTQSPSSLSASVGDRVTITCRASQDIGSNLNWLQQKPGKAIKRLIYATFGLDSGVPSRFSGSRSGTDFTLTISSLQPEDFATYYCQQYASFPYTFGGGTKVEIK
VH 2: EVQLVQSGAEVKKPGSSVKVSCKASGYTFTSYWMHWVRQAPGQCLEWMGNINPSSGATNYNEKFKSRVTLTVDKSTSTAYMELSSLRSEDTAVYYCARDRSQQYYFDYWGQGTTVTVSS
VL 2: DIVMTQSPDSLAVSLGERATINCKSSQSLLNSRSRKNYLAWYQQKPGQPPKLLIYWASTRESGVPDRFSGSGSGTDFTLTISSLQAEDVAVYYCTQSYTLRTFGCGTKVEIK
notes: as for B1
binding result [1]: binds | binding result [2]: binds

B6: Bis-108+147-R100Q.H (bispecific antibody, V domains shown)
VH 1: EVQLVQSGAEVKKPGASVKVSCKASGYTFTSYVIHWVRQAPGQGLEWMGYFNPYNDGTKYNEEFKGRVTLTSDKSTSTAYMELRSLRSDDTAVYYCARGGVRRYFDVWGQGTTVTVSS
VL 1: DIQMTQSPSSLSASVGDRVTITCRASQDIGSNLNWLQQKPGKAIKRLIYATFGLDSGVPSRFSGSRSGTDFTLTISSLQPEDFATYYCQQYASFPYTFGGGTKVEIK
VH 2: EVQLVQSGAEVKKPGSSVKVSCKASGYTFTSYWMHWVRQAPGQCLEWMGNINPSSGATNYNEKFKSRVTLTVDKSTSTAYMELSSLRSEDTAVYYCARDQSSQYYFDYWGQGTTVTVSS
VL 2: DIVMTQSPDSLAVSLGERATINCKSSQSLLNSRSRKNYLAWYQQKPGQPPKLLIYWASTRESGVPDRFSGSGSGTDFTLTISSLQAEDVAVYYCTQSYTLRTFGCGTKVEIK
notes: as for B1
binding result [1]: binds | binding result [2]: binds

B7: Bis-108+147-S32R.L (bispecific antibody, V domains shown)
VH 1: EVQLVQSGAEVKKPGASVKVSCKASGYTFTSYVIHWVRQAPGQGLEWMGYFNPYNDGTKYNEEFKGRVTLTSDKSTSTAYMELRSLRSDDTAVYYCARGGVRRYFDVWGQGTTVTVSS
VL 1: DIQMTQSPSSLSASVGDRVTITCRASQDIGSNLNWLQQKPGKAIKRLIYATFGLDSGVPSRFSGSRSGTDFTLTISSLQPEDFATYYCQQYASFPYTFGGGTKVEIK
VH 2: EVQLVQSGAEVKKPGSSVKVSCKASGYTFTSYWMHWVRQAPGQCLEWMGNINPSSGATNYNEKFKSRVTLTVDKSTSTAYMELSSLRSEDTAVYYCARDRSSQYYFDYWGQGTTVTVSS
VL 2: DIVMTQSPDSLAVSLGERATINCKSSQSLLNRRSRKNYLAWYQQKPGQPPKLLIYWASTRESGVPDRFSGSGSGTDFTLTISSLQAEDVAVYYCTQSYTLRTFGCGTKVEIK
notes: as for B1
binding result [1]: binds | binding result [2]: binds
